Test results from paper PMC7265302 (Nature Communications, 2020).

Target: MavC (residues 1–385, [change]) (Legionella pneumophila, UniProt Q5ZTL4 1-385)
Assay: crystal structure
Conditions: both partners purified

B1: UBE2N (K94A), the UBE2N moiety of the conjugated UBE2N~Ub (enzyme)
chain: MAGLPRRIIKETQRLLAEPVPGIKAEPDESNARYFHVVIAGPQDSPFEGGTFKLELFLPEEYPMAAPKVRFMTKIYHPNVDKLGRICLDILKDAWSPALQIRTVLLSIQALLSAPNPDDPLANDVAEQWKTNEAQAIETARAWTRLYAMNNI
notes: UBE2N, human E2 enzyme
binding result: binds
